Experimental data as given in the DeepSol protein solubility set.

Assay: soluble on expression in E. coli; label from the status in PepcDB or PDB records

Sequence	soluble on expression in E. coli
MSLMYGYPEKWLEGMTTGEGIAAELRLGIVNGHIAEGTLLTENQMAKQFNVSRSPIRDAFKLLQQNQLIQLERMGAHVLPFGEQEKKEMYDLRLMLESFAFSRVKNQERLPIVKEMKKQLEMMKVAVKFEDAESFTKHDFEFHETLIKASNHQYLNSFWSHLKPVMMALVLTSMRQRMQQNPQDFERIHHNHQVFIDAVEQYDSQILKEAFHLNFDDVGKDIEGFWLNEGHHHHHH	soluble
MSLNALIEELKRLLKECATKKIVVIGECVRDVFVNTQRLSGPSDYQYTITKQLQRREFPGGAYPVARDLSNFVSKVHFVTCSTHEFPTNLERMDVIPISRERISKTRFFSGHNSNIFHYHCVFSEEITLSLTPLQELASVFSEADLVIVLDYGHGLLNSDVRKSISQNARFVALNCQANEDKYPFHQIWKYESTDLLLLNKVEAEINLLKTGVPVQELALRLHSKFKSTYTIVTDAEHGAVIQHDYRAYSSPAMSSCVVDAVGCSDIMLGFAALAAQNGKSAEEILYFASVAAGAKTMINVHERPLSREDLYEIALGVQNEGHHHHHH	not soluble
MSLNASVSPKGSLETLSQREVQQLSEVGTGSLYTLFRQCALAILNTGAHVDNAKTILEAYKDFEVRIHQQDRGVRLELLNAPADAFVDGEMIASTREMLFSALRDIVYTESELASQRIDLESSQGITDYVFHLLRNARTLRPGEGHHHHHH	not soluble
MSLNATARQEPADLNDPALRARAVTAARGDAPFDMLITGGRLLDTVTGLIRQADIGLVGALISSVHAPASRTDAVEIIDAAGSILTPGLIDTHMHIESSMVTPAEYASAVLPRGVTTIVWDPHEFGNVHGLDGVRWAIEAARSLPLRMILLAPSCVPSAPGLELAGADFDASMITEMLHSSAVGGVAEVMNMRGVIDGDPRMTDIVNAGLAAGKLVCGHARGLEGADLNAFMASGITSDHELTSGADLLAKLSAGLTIELRGSHDHLLQEFVEVLSGLGHLPPTVTLCTDDVFPDELQEGGGLDDVVRRLVRYGMKPEWAIRAATFNAAQRLKRSDLGLVATGRRADIVLFEDLTEFRARLVISGGRIVARNGSMQVAVQQIDTAPLVNSVKLPPLTENDFRIPAKGERVRVATIDRPRFTQWGEAETEVRDGFIVPPAGSAMISVAHRHGKTDGIPRIGFLTGWGEWRGAFCTTVSHDSHNLTVFGGNAGDMALAANAVISAGGGMAVAKDGRIEAMLPLPLSGLVTDASLKDTALAFAGIRKAMEKIVTWKPPYLVFKACFGATLACNVGPHQTDQGIADVVTGKVLENPVLAVWEGHHHHHH	soluble
MSLNFDWIKTRSDFDDDKPAVIDHAKQTSWTYQQLNARADNMAHYLTSQGVKKGDVIGIFAPNDIAILDLLFACFKTGAVFLPLNWRLNPKEIAAIVEDAQLKLLFYAEKHLSSLTDIDQNLLHMDIDVAQYDEIVNPDYHQPFQATPVEPQDLAALIYTSGTTGSPKGVMFSYESFVHNGANLELTYKFNSNYITIVSTPMFHVLGFNDTVLPVLMSGGTLILQRYFNGEELNDMIAQYHPTFIIMIPTMYYSTLRASNFNPENFRAMDYIIQGGSQPLPSIQAAFKQYGINIINGYGLTEAPLVLVNTPENSKRKPMSIGKAVMFVDARILDDNGEEVPTGEIGELAIKAKNVTPGYWNKPAETAKAFHGRYLLTGDLAKMDDDGDIFIIDRKKELIITGGENVLPSEVENALAEHPLVDRCVVVGYDHPKYGESIAAAIILREDEPHYAEILDQHMRSRLAGYKVPRMYVPVTHMPLNSTQKPDKLAIRQMMNDKVSQTLEGHHHHHH	soluble
MSLNFTLHTLNGIKLWLVLLLLSGAINVCRADSPRQTINFNRGWKYCQGDFDHAARPGFDDSEWEKIGLPHSFSTPYFMSKDFYVGYGWYRKAFPVKKEILGKKSFLEFDGVFQEAEIFVNGHLAGTHKGGYTGFSIDISAYLKEGKNLVAVRVNNCWRPDLAPRAGEHVFSGGIYRNVRLVIKPPTYIDWYGTWITTPDLAENKGKSGSVHIRTDVCNASGKTDTYRLLTTVVDAQGKEVSSVSTSQVLPDNATYTFEQQTKEIQAPQLWHPNHPALYKVISSLYHGQELIDRYETAFGFRWFEWTADRGFFLNGEHLYFKGANVHQDHAGWGDAVTETGMRRDIRLVKEAGFDLIRGSHYPHSPAFSQACDEIGMLFWAENAFWGIGGHKGDGYWNASAYPVNESDRAEFENSVKAQLKELIRIHRNHPSIIVWSMSNEPFFTAPETINPMRKLLEETVKLSKQLDPTRPAAVGGAQRPLGEKRIDKLGDIAGYNGDGSYIPEFQQPGMPTVVSEYGSTTADRPGEYDPGWGDLAKNNAQNGFPWRSGQAIWCAFDHGSIAGSALGKMGIIDYFRIPKRAWYWYRNAYKGITPPEWPQEGTPARISLVADRTDNIKADGTDDVMLSITILDASGKPVSNSPAVKLDILSGPGEFPTGTSILFEKESDIRILDGKAAIEFRSYYAGETVIRATSPGLEPAEVKIRFTGSTPYTEAFKVKERPYTRFETPTKTDNLQTFGPNNPTFCSSSANGHSSAFAADGDESTYWQASENDPERSWTLDTEKGLSIRHIRIAFPDLTPYQYKVEVSMDREHWSLIPDQTNNKQNENIRMIQVVPGIQGRFVRISFTGEKAAITDVQVIGTVIDEGHHHHHH	soluble
MSLNILILHRVRYVDVLYHQSIDHELHNVYYIGIEENLNEIPADLRCTKIVRPGVDAVHKEVLEQIENLDVCFDHVVSINEFELIEAALIREKLNIAGPKVADVEKVRNKIVMKHCVGAVNIRIPQYMSLSDFMNSERLAIPPSSQVILKPLDGASSVDVVKFDSQKVLEQALIDRTTGIVALDKETPERIENFEVEEFVSGPVLHIDGMIRNGQIEMIVVSQYINTLLDFANGYPAGSVQLETTEEMKTWALQILNAVDISLGAFHLEAIQTDTGPVFLEIAHRIGGARIAETLTLQTGIHPSILELGLLLDPDFKFELNYDTGYKYAWFIVPGHQLPGNYGLVSGHEFLYGKEEVVMLNQLTMQQPLVKAVTYKESEIPLAGLLKAKSAKELTDLIDRLFGQLQLISVDTPLPYSECMPQKKKHVLVIGNIRQPHKTLEAQGYAISWMYKKVPNFTHTTEDHNRCERILMYSNESAIQLISLARSIDQLQKIDSVVSFHDGAQLDALTIANALELPFSLSMGAIVNTRDKQLSRRILREKNLTEVQSAIAENEQDLHDFFKIYPQVNKVIVKPVAGTGSENVRSLESKELETANLDNVYPVLVEQFVEGREFSVEAFMQEGKCHIFAITEKFKDAQSFIETGHLVPARLSSDEHEKIAAFIAKVLPALGVVSGITHSEIMLGEKIELIETHTRVGGDRIFDLVQMTTGIDMYRLQALQSLGLPIGEDELTPKLNGKHACIKFKLNDHPGKKVIRVNGEEEIKNWSGVEDVSITHQAGEVLPQIVNSFDRSASVLVLCDSSEQALSIAEEAIQKLEFVVGEGHHHHHH	soluble
MSLNILISGIHGFVGSNFIRALKDKHTLYGLDIVSPAKEGVVTTFSWQDFEPTSFPFQTLPQFDAIIHLAGKAHDTKKQSAAQSYFDINTGLTQKIFDFFLESSAKKFIFFSSVKAAADSVVGDVLTEDVIPTPVGPYGESKIKAEEYIKNHFMFPTSSISEDRSLRLEKEKGRIPKNKQVYILRPCMIHGPGNKGNLNLLYNVVKKGIPWPLGDFDNRRSFTSIDNLCYVIEGLLNQDVPTGIYHMGDDEALSTNELIGIMCEAMGKKPHIWKMNKRVMEGCAGLGTLMHLPLNTERLRKLTENYVVSNAKIKAALGIDKLPVTAKEGLMKTIRSFEETKEGHHHHHH	soluble
MSLNKLEKEASVFFKKNQESVSQDFKKKVSSIEMFSTSLNSEENQSLDRLFLSETQNLSDEESYQEDVLSVKLLTSQIKAIQKQHVLLLGEKIYNARKILSKSCFSSTTFSSWLDLVFRTKSSAYNALAYYELFISLPSTTLQKEFQSIPYKSAYILAARKGDLKTKVSVIGKVCGMSNASAIRVMDQLLPSSRSKDNQRFFESDLEKNRQLSDLLVELLRIVCSGVFLSPYNENLLQQLFEVYKQKSEGHHHHHH	soluble
MSLNLETPSQENLNFMLTEITTKLKMVNVGVFENLELDSVDYNALIDIYQLIKRKSNFSPREMQLFAEELRRIRKEGHHHHHH	soluble
MSLNNVIFSQKLYDTAQMIVDGCMGDADPACQTACPMHTDVKQYVRMAGEGNFQGALDLIRSKLFLPQTLGRICAHPCEASCRRNTEFGQPISVAGIKRFVAEKMDNQDHWDLNIAPLTNKHIAIVGAGPAGAQAAIELRRQGHEVTIYEKLDVYGGMMRVGIPEYRLPRDVIDFEYSYLAMLGIKTQFGVEIGKDISFDTLRSEHDAVILAHGAHVGSIIPLPGHDNDGVFSAVEYLKEISETRQFPRACKRVMVIGGGDVAMDCARSSWRIGASDVYQCSLESLESLPASQIEIDESLEEGVEFNAGWGPVAIEHENGKVTGITIKKVLSIFDEQGNFAPQYSEESKTISVDTVVFATGQIVADITDGALEQTRGGRYVVDKQTLASSLEDVFVAGDACGGNIVIEAMALGRKAAMSVERFLTARPLTEDREGHHHHHH	soluble
MSLNPAYFVLLVEELKTKYLVKDICQILQVPLSTYYRWKKKDFSQSSLEKKIGQLCKAYQFTYGYRKIAALMKQEEQVGINKVQRIMQKYQWQCQVKVKKKNRPGSAYYQTENHLNRNFQASQPLEKLTTDITYLYFGDCRLYLSSIMDLYNGEIVAYSIGEKQDTELVLDTLNQLSLPEGSLLHSDQGSVYTSYEYYQCCKKKNVIRSMSRKGTPADNAPIECFHSSLKCETFYHKTAYKYAKSIVIQIVKDYIKYYNEKRIQQKLGYQSPINFRKQAEGHHHHHH	not soluble
MSLNQASLERNELHNTIWKVANELRGSVDGWDFKQYVLGILFYRYISENMTHYINKEERKRDPSFDYAKLSDEKAERGRKHLIEQKGFFIPPSALFCNALKNACHNEDLNVTLQNIFNEIEKSSLGTPSEENVKGLFADLDVNSNKLGSSHQNRVEKLTKILEAIGGMQLGDYLKSGIDVFGDAYEYLMAMYASNAGKSGGEFFTPQEVSELLAKITLHGQESVNKVYDPCCGSGSLLLQFSKVLGDKNVSKGYFGQEINLTTYNLCRINMFLHDINYSKFHIAHGDTLLDPKHEDDEPFDAIVSNPPYSTKWVGDSNPILINDERFSPAGVLAPKNAADLAFTMHMLSYLSNSGTAAIVEFPGVLYRGNAEAKIREYLVKENVIDCVIALPDNLFFGTSIATCILVLKKNEGHHHHHH	not soluble
MSLNQIDRLLTIMQRLRDPENGCPWDKEQTFATIAPYTLEETYEVLDAIAREDFDDLRGELGDLLFQVVFYAQMAQEEGRFDFNDICAAISDKLERRHPHVFADSSAENSSEVLARWEQIKTEERAQKAQHSALDDIPRSLPALMRAQKIQKRCANVGFDWTTLGPVVDKVYEEIDEVMYEARQAVVDQAKLEEEMGDLLFATVNLARHLGTKAEIALQKANEKFERRFREVERIVAARGLEMTGVDLETMEEVWQQVKRQEIDLEGGSHHHHHH	soluble
MSLNRIAFSAAHVVADPLAASDPWLEAAIDWDHTIAYRQRLWDLGLGVAEAMDTAQRGMGLDWPTSLDLIRRSVEAAKAHGPEALVFSGAGTDHLAPEAARSLDDVIRAYEEQVAAVEKVGGRIILMASRALARIGTSAADYETVYGRILSQVREPVIIHWLGDMFDPALAGYWGTRDLDAAMDTAVAIINAHAAKVDGVKISLLDKDKEIAMRRRLDPAVRMYTGDDFNYAELVAGDAQGYSHALLGIFDAIAPAASAALTALAAGDEAGFHDILAPTVPLSRHIFRAPTRFYKTGVVFMAYLNGHQDHFTMVGGQESARSTLHLAELFRLADRAGLLTDPDLAVQRMRAVLAVRGVEAEGHHHHHH	not soluble
